Residue numbers refer to the chain shown, from its start.
T1: Human CD228 protein (human, UniProt P08582 20-708, limits assumed)
T1 construct: Recombinant protein made in CHO cells, purified over a Ni column; The printed entry begins with the leader (MRGPSG...) and ends with ten His; also called hCD228; CD228-His protein
T1 sequence: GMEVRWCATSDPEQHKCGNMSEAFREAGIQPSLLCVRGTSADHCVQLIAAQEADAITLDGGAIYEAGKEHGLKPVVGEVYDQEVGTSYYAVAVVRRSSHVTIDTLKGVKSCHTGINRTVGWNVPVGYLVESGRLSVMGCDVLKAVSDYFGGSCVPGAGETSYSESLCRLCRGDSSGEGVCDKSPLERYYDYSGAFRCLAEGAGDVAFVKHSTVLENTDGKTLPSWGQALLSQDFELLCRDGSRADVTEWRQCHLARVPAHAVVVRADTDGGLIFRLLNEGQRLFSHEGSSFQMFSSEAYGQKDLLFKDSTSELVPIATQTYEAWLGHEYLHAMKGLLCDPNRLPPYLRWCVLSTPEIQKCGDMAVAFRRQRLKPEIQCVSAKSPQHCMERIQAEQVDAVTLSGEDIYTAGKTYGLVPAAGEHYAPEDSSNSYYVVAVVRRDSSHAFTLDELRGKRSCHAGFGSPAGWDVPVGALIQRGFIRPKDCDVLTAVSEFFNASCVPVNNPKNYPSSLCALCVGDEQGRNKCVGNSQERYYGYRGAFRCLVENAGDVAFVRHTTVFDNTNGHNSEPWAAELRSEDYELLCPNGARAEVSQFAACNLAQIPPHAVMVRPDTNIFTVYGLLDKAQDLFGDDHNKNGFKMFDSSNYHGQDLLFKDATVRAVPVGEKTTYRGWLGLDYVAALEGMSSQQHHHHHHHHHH

T2: CD228 protein on human melanoma SK-MEL-5 cells (human, UniProt P08582 20-709)
T2 construct: whole, on cells; Endogenous CD228 on the cell line; also called SK-MEL-5 cells (expressing CD228 proteins)
T2 sequence (looked up): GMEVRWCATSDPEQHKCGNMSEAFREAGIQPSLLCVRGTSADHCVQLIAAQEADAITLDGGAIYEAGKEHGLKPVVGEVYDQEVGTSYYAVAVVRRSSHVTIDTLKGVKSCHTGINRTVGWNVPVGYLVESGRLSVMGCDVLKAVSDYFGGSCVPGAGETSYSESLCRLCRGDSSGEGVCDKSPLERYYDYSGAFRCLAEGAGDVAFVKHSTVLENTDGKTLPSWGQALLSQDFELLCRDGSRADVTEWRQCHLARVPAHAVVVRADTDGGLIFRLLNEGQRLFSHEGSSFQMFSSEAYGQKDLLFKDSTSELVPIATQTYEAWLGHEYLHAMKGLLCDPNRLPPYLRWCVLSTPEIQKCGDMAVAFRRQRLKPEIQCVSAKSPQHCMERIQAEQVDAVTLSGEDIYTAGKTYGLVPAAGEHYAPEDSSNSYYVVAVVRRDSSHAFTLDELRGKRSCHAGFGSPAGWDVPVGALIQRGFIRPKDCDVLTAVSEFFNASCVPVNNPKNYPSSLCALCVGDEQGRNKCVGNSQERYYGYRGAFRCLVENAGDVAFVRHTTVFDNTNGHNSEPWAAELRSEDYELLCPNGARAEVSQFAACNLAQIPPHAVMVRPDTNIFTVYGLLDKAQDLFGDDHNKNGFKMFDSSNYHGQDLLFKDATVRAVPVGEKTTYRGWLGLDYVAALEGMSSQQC

B1: reference antibody hL49 (antibody, human IgG1, kappa, V domains shown)
VH: QVQLQESGPGLVKPSETLSLTCTVSGDSITSGYWNWIRQPPGKGLEYIGYISDSGITYYNPSLKSRVTISRDTSKNQYSLKLSSVTAADTAVYYCARRTLATYYAMDYWGQGTLVTVSS
VL: DFVMTQSPLSLPVTLGQPASISCRASQSLVHSDGNTYLHWYQQRPGQSPRLLIYRVSNRFSGVPDRFSGSGSGTDFTLKISRVEAEDVGVYYCSQSTHVPPTFGQGTKLEIKR
notes: also called H149; hL49 analogy
B2: CA13 (antibody, human IgG1, kappa, V domains shown)
VH: EVQLVESGGGVVQPGRSLRLSCAASGFTFSSYAMHWVRQAPGKGLEWVAVISYDGSNKYYADSVKGRFTISRDNSKNTLFLQMNSLRAEDTAVYYCARDVYHYGSRSPYYYGMDVWGQGTTVTVSS
VL: DIVMTQSPSSLSASVGDRVTITCRASQGISNYLAWFQQKPGKVPKLLIYAASTLQSGVPSRFSGSGSGTDFTLTISSLQPEDVATYYCQKYNSAPFTFGPGTKVDIKR
notes: Intact IgG1 from fully human antibody-transgenic mice
B3: CA67 (antibody, human IgG1, kappa, V domains shown)
VH: B2 VH with F80Y
VL: B2 VL with V3Q, G28A, F36Y, Q55H, S56P
notes: Intact IgG1
B4: CA518 (antibody, human IgG1, kappa, V domains shown)
VH: B2 VH with Y60H, A97V
VL: B2 VL with V3Q, L11V, N31S, Y32W, F36Y, V43A, T53S
notes: Intact IgG1
B5: BA352 (antibody, human IgG1, kappa, V domains shown)
VH: EVQLVESGGGVVQPGRSLRLSCAASGFTFSSYAMHWVRQAPGKGLEWVAVISYDGSNKYYADSVKGRFTISRDNSKNTLYLQMNSLRAEDTAVYYCARGPYLAAAGTALTFDIWGQGTMVTVSS
VL: DIQMTQSPSAMSASVGDRVTITCRASQGINNYLAWFQQKPGKVPKRLIYAASSLQSGVPSRFSGSGSGTEFTLTISSLQPEDFATYYCLQHNSYPFTFGPGTKVDIKR
notes: Intact IgG1
B6: CA149 (antibody, human IgG1, kappa, V domains shown)
VH: EVQLVESGGGVVQPGRSLRLSCAASGFTFSSYAMHWVRQAPGKGLEWVAVISFDGSNKYYTDSVKGRFTISRDNSKNTLYLQMNSLRAEDTAVYYCAREVPYYYGSGPFDYWGQGTLVTVSS
VL: EIVLTQSPATLSVSPGERATLSCRASQSVSSNLAWYQQKPGQAPRHLIDGASSRASGIPDRFSGSGSGTDFTLTISRLEPEDFAVYYCQQYGSSPPFTFGPGTKVDIKR
notes: Intact IgG1; also called CA149 antibody
B7: CA185 (antibody, human IgG1, kappa, V domains shown)
VH: B6 VH with F53Y, T61A
VL: EIVLTQSPGTLSLSPGERATLSCRASQSVSSSSLAWYQQKPGQAPRHLIDGASSRASGIPDRFSGSGSGTDFTLTISRLEPEDFAVYYCQQYGSSYTFGQGTKVDIKR
notes: Intact IgG1

target: T1, Human CD228 protein; assay: ELISA, plate coated with human CD228 protein
Method: Human CD228 protein (prepared by Boan, 20201014, SEQ ID NO: 41) was diluted to 0.1 μg/mL with a carbonate-buffered saline (hereinafter referred to as CBS) at pH 9.6. Microplates were coated with the protein at 100 μL/well, and incubated at 4° C. overnight. After washing, the microplates were blocked with skimmed milk powder. The plates were washed, before antibodies diluted with PBST (phosphate-buffered saline, Solarbio P1010, +0.05% Tween20) were added at 100 μL/well. The diluted antibodies were intact antibodies comprising Fc, Fab and the constant region serially 3-fold diluted from 0.1 μg/mL to 8 concentrations with PBST. After washing the plates, goat anti-human IgG (H+L)/HRP (diluted at 1:5000, KPL, 474-1006) was added at 100 μL/well, and the plates were incubated at 37° C. for 1 h. After washing the plates, TMB (Beijing Makewonderbio, 1001) was added at 100 μL/well for chromogenesis, and after 10 min, 50 μL of 2 M H₂SO₄ was added to stop the chromogenesis. OD450 was measured on a microplate reader. The antibody hL49 targeting CD228 from Seagen was used as a reference antibody in this study and the following studies.

Row | Binder | EC50 [µg/mL]
1 | B1 | 0.0278
2 | B2 | 0.0032
3 | B3 | 0.0038
4 | B4 | 0.0043
5 | B5 | 0.0061
6 | B6 | 0.0036
7 | B7 | 0.0039

target: T1, Human CD228 protein; assay: Octet competition on His-chip CD228; competitor: CA67
Method: (§1) CD228 proteins were immobilized on His chips at 10 μg/mL with a threshold of 0.5 nm. The first CD228 antibody (30 μg/mL) was immobilized, and the competitive binding of the second CD228 antibody (30 μg/mL) was analyzed. The Octet 8K system was used to analyze the response of antibody 2 and to determine whether antibody 1 and antibody 2 were in competition.
(§2) The final competition analysis was conducted using the following calculation method: 1—response value/blank value.

Row | Binder | competition (1-response value/blank value) [%]
8 | B1 | -7
9 | B2 | 100
10 | B3 | 102
11 | B4 | 99
12 | B5 | -4
13 | B6 | 98
14 | B7 | 99

target: T1, Human CD228 protein; assay: Octet competition on His-chip CD228; competitor: BA352
Method: as §1

Row | Binder | Octet response value
15 | B1 | 0.177
16 | B2 | 0.427
17 | B3 | 0.423
18 | B4 | 0.415
19 | B5 | 0.0217
20 | B6 | 0.442
21 | B7 | 0.459

target: T1, Human CD228 protein; assay: as above; remark: another data set of the same source
Method: as §1, §2

Row | Binder | competition (1-response value/blank value) [%]
22 | B1 | 55
23 | B2 | -9
24 | B3 | -8
25 | B4 | -5
26 | B5 | 94
27 | B6 | -12
28 | B7 | -17

target: T2, CD228 protein on human melanoma …; assay: flow cytometry on SK-MEL-5 cells, fluorescent secondary antibody, MFI
Method: To a 96-well round-bottom plate, human melanoma SK-MEL-5 cells (ATCC, HTB-70) were added with a cell density of 7E4 cells/50 μL/well. The antibodies were serially diluted with an FACS buffer (PBS, Boster Biological Technology, Catalog No. PYG0021) and added to the 96-well round-bottom plate at 50 μL/well. The plate was then incubated at 4° C. for 1 h. The supernatant was discarded after centrifugation at 400 g for 4 min. The plate was washed once with FACS buffer, before a fluorescent secondary antibody (Jackson, 109545-008) at 100 μL/well was added. The mixture was incubated at 4° C. in the dark for 30 min and centrifuged at 400 g for 4 min. The supernatant was discarded. The cells were washed once with FACS buffer, resuspended in FACS buffer at 100 μL/well, and loaded on a flow cytometer (ACEA Pharma, NovoCyte 2060) for analysis. […] The isotype reference antibody in FIG. 4 is an irrelevant antibody targeting other antigens with constant regions similar to the experimental anti-CD228 antibodies but with different variable regions.

Row | Binder | EC50 [µg/mL]
29 | B1 | 0.195
30 | B2 | 0.083
31 | B3 | 0.096
32 | B4 | 0.081
33 | B5 | 0.152
34 | B6 | 0.135
35 | B7 | 0.123
